{"source": "patent US20240132577A1", "biological_target": "SARS-CoV-2 RBD (reagent of the GenScript sVNT kit L00847) (SARS-CoV-2), P0DTC2", "conditions": "remark: other sources report otherwise"}
{"binder": "Nb21 (VHH) QVQLVESGGGLVQAGGSLRLSCAVSGLGAHRVGWFRRAPGKEREFVAAIGANGGNTNYLDSVKGRFTISRDNAKNTIYLQMNSLKPQDTAVYYCAARDIETAEYTYWGQGTQVTVSS", "values": [{"measurement": "Inhibition Rate (%)", "value": 14, "unit": "%"}]}
